Experiments:
HGC-27 cells = assay: siRNA screening based on cell growth; design: species or system human; conditions: Figure 2B source data; siRNA against the named gene; Z score based analysis
Procedure: For screening based on cell growth, HGC-27 cells (2000 per well) were seeded into a 96-well plate overnight. The individual siRNAs targeting 192 BioID-identified genes were then added into each well to a final concentration of 25 nM. After subsequent incubation for 48 h, the cells were analyzed using an ATP-based CellCounting-Lite^TM 2.0 reagent (Vazyme, Nanjing, China) according to the manufacturer’s instructions. The intracellular ATP contents were measured using an EnSight™ Multimode Microplate Reader (Perkin Elmer).

[1] = system: GFP-TEAD4 condensates in HEK293FT cells; assay: GFP-TEAD4 condensate imaging, condensed fraction in cells; type: cell-based; conditions: Figure 2D source data, GFP-TEAD4 condensates with co-expressed cofactor, with or without 1,6-Hex, single measurement
GFP-TEAD4 condensates = assay: siRNA screening based on TEAD4 condensate; type: cell-based; conditions: Figure 2B source data; siRNA against the named gene; Z score based analysis
Procedure: siRNA reagents were obtained from the Dharmacon Human ON-TARGETplus siRNA Smartpool Library (Thermo) as described previously (Tang et al, [2020]). […] Lipofectamine RNAiMAX reagent (Thermo) at a volume of 0.05 μl per well was then added to the siRNA-loaded plates. Subsequently, cells expressing GFP-TEAD4 were seeded into the plate at 2000 cells per well. After subsequent transfection for 48 h, the cells were fixed with 4% PFA at room temperature for 30 min. DAPI was used to identify individual nuclei. The plates were kept at 4 °C in the dark before being analyzed using the Opera system. Twenty focus fields per well were scanned and analyzed. Scrambled siRNA was used as an internal reference on each plate.

B1: RFXANK (protein)
chain: MELTQPAEDLIQTQQTPASELGDPEDPGEEAADGSDTVVLSLFPCTPEPVNPEPDASVSSPQAGSSLKHSTTLTNRQRGNEVSALPATLDSLSIHQLAAQGELDQLKEHLRKGDNLVNKPDERGFTPLIWASAFGEIETVRFLLEWGADPHILAKERESALSLASTGGYTDIVGLLLERDVDINIYDWNGGTPLLYAVRGNHVKCVEALLARGADLTTEADSGYTPMDLAVALGYRKVQQVIENHILKLFQSNLVPADPE
HGC-27 cells
  Z score of cell growth: 3.094
[1]; replicate 1 of 9
  Condensed fraction: 37.5428%
[1]; replicate 2 of 9
  Condensed fraction: 33.3337%
[1]; replicate 3 of 9
  Condensed fraction: 44.4467%
[1]; replicate 4 of 9
  Condensed fraction: 47.0652%
[1]; replicate 5 of 9
  Condensed fraction: 51.3041%
[1]; replicate 6 of 9
  Condensed fraction: 37.5405%
[1]; replicate 7 of 9
  Condensed fraction: 26.519%
[1]; replicate 8 of 9
  Condensed fraction: 36.7045%
[1]; replicate 9 of 9
  Condensed fraction: 37.5001%
GFP-TEAD4 condensates
  Z score of condensed fraction: -3.941
